Consider two molecules from patent US20160200782A1 (MOERAE MATRIX, published 2016).

Some targets named below: MLCK(h) (human); PDGFRβ(h) (human, UniProt P09619 557-1106, limits assumed); SIK(h) (human, UniProt P57059 1-783, limits assumed); Syk(h) (human, UniProt P43405 1-635, limits assumed); Tie2(h) (human, UniProt Q02763 771-1124, limits assumed).
Common to all, as to test: cell-based or functional assay
The next test has as its target T1, MRCKβ(h) (human, UniProt Q9Y5S2 1-473, limits assumed).
T1 sequence (looked up): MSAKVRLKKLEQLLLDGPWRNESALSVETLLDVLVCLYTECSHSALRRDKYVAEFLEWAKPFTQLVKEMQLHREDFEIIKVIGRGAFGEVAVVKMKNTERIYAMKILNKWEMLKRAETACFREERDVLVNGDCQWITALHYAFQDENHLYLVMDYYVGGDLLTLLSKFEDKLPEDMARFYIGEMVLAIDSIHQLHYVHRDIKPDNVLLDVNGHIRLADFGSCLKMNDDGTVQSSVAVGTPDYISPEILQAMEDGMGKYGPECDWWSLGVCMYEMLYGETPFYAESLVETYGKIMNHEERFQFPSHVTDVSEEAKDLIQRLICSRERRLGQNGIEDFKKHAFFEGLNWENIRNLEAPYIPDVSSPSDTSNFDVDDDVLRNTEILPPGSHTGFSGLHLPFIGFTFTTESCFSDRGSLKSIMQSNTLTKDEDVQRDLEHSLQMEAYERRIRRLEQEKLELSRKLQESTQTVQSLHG

The target of a further test is T2, NEK3(h) (human, UniProt P51956 1-506, limits assumed).
T2 sequence (looked up): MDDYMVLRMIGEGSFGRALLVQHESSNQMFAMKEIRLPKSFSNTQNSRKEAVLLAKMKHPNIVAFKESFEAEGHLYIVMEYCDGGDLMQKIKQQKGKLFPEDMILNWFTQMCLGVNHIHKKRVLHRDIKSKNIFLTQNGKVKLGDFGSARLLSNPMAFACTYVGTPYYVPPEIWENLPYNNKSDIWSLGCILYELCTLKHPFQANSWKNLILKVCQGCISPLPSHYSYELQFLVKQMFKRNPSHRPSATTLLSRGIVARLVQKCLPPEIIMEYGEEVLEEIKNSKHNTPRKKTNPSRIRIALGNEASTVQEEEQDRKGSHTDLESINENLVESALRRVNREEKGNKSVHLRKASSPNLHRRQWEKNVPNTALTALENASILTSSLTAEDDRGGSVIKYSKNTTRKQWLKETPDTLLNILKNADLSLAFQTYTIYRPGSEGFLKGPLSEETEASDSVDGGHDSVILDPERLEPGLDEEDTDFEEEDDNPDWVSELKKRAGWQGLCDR

The next test concerns the target T3, PRAK(h) (human, UniProt Q8IW41 1-473, limits assumed).
T3 sequence (looked up): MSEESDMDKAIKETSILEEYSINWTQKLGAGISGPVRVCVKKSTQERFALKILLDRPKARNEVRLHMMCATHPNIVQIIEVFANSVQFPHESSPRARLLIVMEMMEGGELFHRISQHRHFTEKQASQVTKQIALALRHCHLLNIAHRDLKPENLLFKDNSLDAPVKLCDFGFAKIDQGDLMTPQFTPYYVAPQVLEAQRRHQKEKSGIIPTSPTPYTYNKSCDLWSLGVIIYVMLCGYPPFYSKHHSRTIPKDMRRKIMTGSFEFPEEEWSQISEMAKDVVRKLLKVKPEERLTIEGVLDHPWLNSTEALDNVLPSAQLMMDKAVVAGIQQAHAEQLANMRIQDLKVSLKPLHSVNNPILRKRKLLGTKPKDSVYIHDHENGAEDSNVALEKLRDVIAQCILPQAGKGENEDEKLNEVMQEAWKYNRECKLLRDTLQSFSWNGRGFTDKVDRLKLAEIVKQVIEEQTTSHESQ

The target of another test is T4, SAPK3(h) (human, UniProt P53778 1-367).
T4 sequence (looked up): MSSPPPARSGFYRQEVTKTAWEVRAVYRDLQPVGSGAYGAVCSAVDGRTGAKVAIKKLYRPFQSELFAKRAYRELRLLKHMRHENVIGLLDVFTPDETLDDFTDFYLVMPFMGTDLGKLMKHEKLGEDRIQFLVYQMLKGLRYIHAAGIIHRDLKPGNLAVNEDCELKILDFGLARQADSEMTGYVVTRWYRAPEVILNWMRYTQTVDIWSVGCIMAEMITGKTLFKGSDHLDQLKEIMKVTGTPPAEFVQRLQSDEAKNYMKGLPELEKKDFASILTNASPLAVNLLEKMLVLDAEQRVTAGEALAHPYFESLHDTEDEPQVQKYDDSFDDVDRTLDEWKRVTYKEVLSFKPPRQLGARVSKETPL

Another test addresses T5, eEF-2K(h) (human, UniProt O00418 1-725, limits assumed).
T5 sequence (looked up): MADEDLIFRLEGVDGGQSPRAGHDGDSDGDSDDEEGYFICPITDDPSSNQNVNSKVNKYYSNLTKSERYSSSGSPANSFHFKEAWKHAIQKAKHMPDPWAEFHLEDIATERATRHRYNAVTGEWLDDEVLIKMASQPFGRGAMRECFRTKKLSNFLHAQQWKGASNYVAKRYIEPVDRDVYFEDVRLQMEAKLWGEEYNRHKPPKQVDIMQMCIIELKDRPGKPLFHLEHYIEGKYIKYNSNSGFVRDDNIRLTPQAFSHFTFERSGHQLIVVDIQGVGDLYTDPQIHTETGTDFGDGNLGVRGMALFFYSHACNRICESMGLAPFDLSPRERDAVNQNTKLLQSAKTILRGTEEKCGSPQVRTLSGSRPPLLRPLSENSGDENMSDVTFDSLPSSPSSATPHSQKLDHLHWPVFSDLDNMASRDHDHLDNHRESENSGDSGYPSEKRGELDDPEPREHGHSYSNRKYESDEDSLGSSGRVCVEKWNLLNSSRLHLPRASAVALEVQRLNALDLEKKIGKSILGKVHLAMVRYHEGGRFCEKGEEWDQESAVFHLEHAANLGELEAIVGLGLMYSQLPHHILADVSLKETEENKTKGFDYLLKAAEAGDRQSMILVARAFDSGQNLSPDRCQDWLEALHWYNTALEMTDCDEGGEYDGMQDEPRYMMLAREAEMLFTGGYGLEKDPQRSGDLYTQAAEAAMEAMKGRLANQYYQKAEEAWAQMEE
Also: test concentration or dose not given here.

Chain of SIK(h) (P57059 whole entry): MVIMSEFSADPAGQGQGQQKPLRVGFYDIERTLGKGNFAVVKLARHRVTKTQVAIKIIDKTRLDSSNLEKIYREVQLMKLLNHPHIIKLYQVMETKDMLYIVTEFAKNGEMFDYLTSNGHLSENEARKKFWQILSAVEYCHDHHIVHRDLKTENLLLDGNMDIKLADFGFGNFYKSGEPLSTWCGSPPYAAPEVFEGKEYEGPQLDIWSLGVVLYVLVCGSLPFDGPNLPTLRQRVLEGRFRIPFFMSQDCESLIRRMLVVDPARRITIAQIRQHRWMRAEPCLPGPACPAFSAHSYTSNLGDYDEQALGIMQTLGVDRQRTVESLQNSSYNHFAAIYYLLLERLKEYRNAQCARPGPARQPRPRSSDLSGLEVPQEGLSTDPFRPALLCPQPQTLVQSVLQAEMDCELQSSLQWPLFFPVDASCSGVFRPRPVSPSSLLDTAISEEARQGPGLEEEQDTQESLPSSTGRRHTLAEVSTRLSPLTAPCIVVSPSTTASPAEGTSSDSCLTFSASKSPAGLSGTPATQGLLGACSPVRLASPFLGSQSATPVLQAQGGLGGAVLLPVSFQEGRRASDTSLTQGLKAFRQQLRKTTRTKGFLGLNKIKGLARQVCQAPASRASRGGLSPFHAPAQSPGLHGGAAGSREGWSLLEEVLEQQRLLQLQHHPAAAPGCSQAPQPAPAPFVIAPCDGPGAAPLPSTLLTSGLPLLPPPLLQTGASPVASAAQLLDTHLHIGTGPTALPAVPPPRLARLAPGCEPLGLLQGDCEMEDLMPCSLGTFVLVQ
Chain of PDGFRβ(h) (P09619 557-1106 limits assumed): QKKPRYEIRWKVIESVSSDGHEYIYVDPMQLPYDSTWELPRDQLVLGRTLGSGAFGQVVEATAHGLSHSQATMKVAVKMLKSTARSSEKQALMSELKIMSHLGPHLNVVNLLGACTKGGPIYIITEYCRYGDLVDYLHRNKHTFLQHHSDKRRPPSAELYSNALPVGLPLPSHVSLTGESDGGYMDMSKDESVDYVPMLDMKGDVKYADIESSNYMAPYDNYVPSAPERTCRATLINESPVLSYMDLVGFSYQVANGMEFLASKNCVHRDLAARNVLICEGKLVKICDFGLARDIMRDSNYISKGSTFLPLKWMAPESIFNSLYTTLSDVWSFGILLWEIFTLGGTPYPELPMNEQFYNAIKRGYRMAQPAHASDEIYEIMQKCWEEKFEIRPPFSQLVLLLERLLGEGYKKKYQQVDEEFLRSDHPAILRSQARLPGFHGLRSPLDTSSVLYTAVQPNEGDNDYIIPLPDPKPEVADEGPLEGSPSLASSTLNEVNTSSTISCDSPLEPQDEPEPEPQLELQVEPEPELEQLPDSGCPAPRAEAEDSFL
Chain of Tie2(h) (Q02763 771-1124 limits assumed): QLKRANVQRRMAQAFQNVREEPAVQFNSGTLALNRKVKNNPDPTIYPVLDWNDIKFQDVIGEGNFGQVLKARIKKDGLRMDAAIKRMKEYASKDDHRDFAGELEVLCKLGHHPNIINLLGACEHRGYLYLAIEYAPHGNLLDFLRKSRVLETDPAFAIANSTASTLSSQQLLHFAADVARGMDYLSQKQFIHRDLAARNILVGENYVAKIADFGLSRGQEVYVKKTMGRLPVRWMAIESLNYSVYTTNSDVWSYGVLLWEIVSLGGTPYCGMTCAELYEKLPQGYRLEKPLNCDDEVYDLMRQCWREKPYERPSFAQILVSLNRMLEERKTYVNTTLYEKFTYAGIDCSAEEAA

B1: MMI-0300 (peptide)
peptide: FAKLAARLYRKALARQLGVAA
Turning to B1, the “% activity” value with MLCK(h) is 2%; with MRCKβ(h), 83%; with NEK3(h) it was 92%; in the test with PDGFRβ(h), 81%; in the test with PRAK(h), 128%; with SAPK3(h), 84%. Besides, the “% activity” value was found to be 66% with SIK(h), 24% in the test with Syk(h), 26% with Tie2(h) and 91% with eEF-2K(h).

B2: MMI-0400 (peptide)
peptide: KAFAKLAARLYRKALARQLGVAA
B2: the “% activity” value was found to be 1% in the test with MLCK(h); 71% with MRCKβ(h); 85% with NEK3(h); 53% with PDGFRβ(h); 118% with PRAK(h); 79% with SAPK3(h). Further, the “% activity” value with SIK(h) is 68%; with Syk(h), 9%; with Tie2(h), 21%; in the test with eEF-2K(h), 43%.
